{"source": "paper PMC10651016", "origin": "cited, not measured here", "tested_on": "Lys110", "test": "kinetics", "conditions": "steady-state turnover with L-proline; FAD-bound enzyme"}
{"substance": "L-proline dehydrogenase (ProDH) (Mycobacterium tuberculosis)", "values": [{"measurement": "pKa", "value": 6.8}]}
